Two substances from patent US7063950 can be followed below.

Experiment [1] concerns the target human neuronal calcium channel subunits α1B-1α2b (human).
Experiment [2] has as its target human neuronal calcium channel α1B-1α2bβ1-3 (human). As to the kind of experiment: saturation binding of 125I-ω-CgTx GVIA to transiently transfected HEK293 cells.
For experiment [3], the target named is human neuronal calcium channel α1B-2α2bβ1-2 (human). The description is as above.
Experiment [4] has as its target human neuronal calcium channel α1B-1α2bβ1-2 (human). The description is as above.
Experiment [5] concerns the target human neuronal calcium channel subunits α1B-2β1-3 (human). The description is as above.
The target of experiment [6] is human neuronal calcium channel subunits α1B-1β1-2 (human). The experiment is described as above.
The target in experiment [7] is human neuronal calcium channel subunits α1B-2β1-2 (human). Described as above.
Experiment [8] has as its target human neuronal calcium channel subunits α1B-1β1-3 (human). Described as above.
In experiment [9] the target is human neuronal calcium channel α1B-1α2bβ1-3 (human).
The target in experiment [10] is human neuronal calcium channel α1B-2α2bβ1-2 (human).
Experiment [11] addresses human neuronal calcium channel α1B-1α2bβ1-2 (human).
The target in experiment [12] is human neuronal calcium channel subunits α1B-1α2b (human). The source holds these as a separate data set.
Experiment [13] concerns the target human neuronal calcium channel subunits α1B-1β1-2 (human).
The target in experiment [14] is human neuronal calcium channel subunits α1B-1β1-3 (human).
Experiment [15] deals with human neuronal calcium channel α1E-3α2bβ1-3 (human). Nature of the experiment: cell-based or functional assay.

pKd: −log10 of the molar value.

Broadly, the pKd is −log10 of the Kd, conventionally taken in molar units. Take “125I-ω-CgTx GVIA (from UniProt P01522 46-72) (peptide)”: the Bmax (sites/cell) was 2260 sites/cell in experiment [1]; 91000 sites/cell in [2]; 19400 sites/cell in experiment [3]; 45300 sites/cell in [4]; 2940 sites/cell in experiment [5]; 5760 sites/cell in [6]. The Bmax (sites/cell) stood at 2130 sites/cell in [7] and 8730 sites/cell in [8]. For the same substance, the negative logarithm of the Kd (pKd) was 10.07 in experiment [1]; 10.27 in experiment [2]; 10.28 in [3]; 10.26 in experiment [4]; 10.65 in experiment [5]; 10.75 in experiment [6]. Moreover, the pKd in experiment [7] is 10.79; in experiment [8] it was 10.75. The fold binding capacity against α1B-1α2bβ1-2 in [9] was 2 fold. Besides, the fold binding sites per cell against α1B-2α2bβ1-3 in experiment [9] came out at 2.5 fold. Further, the fold surface receptor density against α1B-1β1-3 in [9] stood at 10 fold. Besides, the fold surface receptor density against α1B-2β1-2 in experiment [10] stood at 9 fold. Moreover, the fold binding sites per cell against α1B-2α2bβ1-2 in [11] was 2.5 fold. Also, the fold surface receptor density against α1B-1β1-2 in experiment [11] turned out to be 8 fold. Besides, the fold increase of binding capacity against α1B-1 alone in experiment [12] stood at 3 fold. For the same substance, the fold increase of surface binding against α1B-1 alone stood at 8 fold in experiment [13] and 10 fold in [14].

In the case of “ω-Aga-IVa (from UniProt P30288 1-48) (peptide)”, in experiment [15], the block of barium current (whole-cell patch clamp, HEK 293 cells) (% block at 10 nM) was determined as 73.
